Biological target: T1, TATA-binding protein (TBP) (yeast, UniProt P13393 1-240, limits assumed)
T1 construct: Soluble analyte, injected over Gal4 derivatives captured on DNA in SPR
T1 sequence (looked up): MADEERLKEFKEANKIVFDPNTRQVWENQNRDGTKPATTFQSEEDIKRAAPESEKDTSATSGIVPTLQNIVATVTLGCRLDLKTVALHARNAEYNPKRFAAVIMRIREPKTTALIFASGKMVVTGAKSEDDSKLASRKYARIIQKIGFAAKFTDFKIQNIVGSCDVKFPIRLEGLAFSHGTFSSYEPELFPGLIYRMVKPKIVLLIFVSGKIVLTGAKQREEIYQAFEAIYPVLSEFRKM
Assay: SPR, Gal4 derivative captured on a DNA-bearing chip, TBP injected
Description: PROTEIN—PROTEIN INTERACTIONS: The activators (GAL4 derivatives and other activating regions fused to GAL4 DNA binding domain) were first passed over the DNA-bearing chip. Typically 10 µl of 0.01 mg/ml protein solution (~1 µM) in HBS (10 mM HEPES pH 7.4, 150 mM NaCl, 0.0005% Surfectant P20, Pharmacia) were injected at a flow rate of 5 µl/min, and the DNA was saturated by the activators. This is indicated by the first increase of the RU value on the sensorgrams. Various proteins to be tested (e.g., TBP) were then injected (typically 20 µl of […] solution in HBS at a flow rate of 5 µl/min), and their binding to the activating regions was indicated by the second increase of the RU value on the sensogram. The DNA bearing chip was then regenerated by washing with 10 µl of 0.1% SDS, a procedure that washes both proteins off the DNA, but leaves the DNA bearing chip intact. The baseline of the sensorgrams always comes back to the original level after each regeneration. A different activator was then injected to the same surface at the same concentration, and the DNA was once again saturated with the activators. As a consequence the same number of the molecules of the activators was immobilized to the chip each time. The protein to be tested (e.g., TBP) was once again injected and its binding to this activator was compared to that of the previous one. […]

B1: GAL4(1-100)+(840-881) fusion (other, yeast, UniProt P04386 1-100, looked up)
chain: MKLLSSIEQACDICRLKKLKCSKEKPKCAKCLKNNWECRYSPKTKRSPLTRAHLTEVESRLERLEQLFLLIFPREDLDMILKMDSLQDIKALLTGLFVQDWTDQTAYNAFGITTGMFNTTTMDDVYNYLFDDEDTPPNPKKE
notes: range 1-100;range 840-881; also called G4RII' (as Gal4(840-881)) fused to Gal4(1-100); RJR182
  Ka: 6e+06 M⁻¹

B2: GAL4(1-100)+(840-857) (other, yeast, UniProt P04386 1-100, looked up)
chain: MKLLSSIEQACDICRLKKLKCSKEKPKCAKCLKNNWECRYSPKTKRSPLTRAHLTEVESRLERLEQLFLLIFPREDLDMILKMDSLQDIKALLTGLFVQDWTDQTAYNAFGITTGMFN
notes: range 1-100;range 840-857
  Ka: 2e+06 M⁻¹
